How the values were obtained:
BxPC-3 infected cells = assay: Annexin V/PI assay; assay type: cell-based; details: BxPC-3, SEQ ID NO: 1-Puromycin conditions
Description: (§1) FIG. 6. Micropeptide of sequence SEQ ID NO: 1 expression induces cell death upon cellularstress. SkBR-3, HPAF II, MIA PaCa-2 and BxPC-3 cells were infected with empty or SEQ ID NO: 1-HA retroviruses, and selected by puromycin. Micropeptide of sequence SEQ ID NO: 1 expression was analyzed by qPCR (A) and by Western blot (B). (C) Phase contrast images of the indicated cells 3 days after selection with puromycin. (D) Annexin-V/PI staining of BxPC-3 infected cells with and without puromycin treatment, analyzed by Flow Cytrometry. (E) BXPC-3 cells were infected with an inducible lentivirus encoding SEQ ID NO: 1-HA, and selected with Neomycin. Micropeptide of sequence SEQ ID NO: 1 expression was induced by doxycycline, and cells were treated with Doxorubicin or Actinomycin D. (E) Cell viability of the indicated cells measured by crystal violet staining.
After lentiviral infection and puromycin selection for 72 h, infected cells were washed twice with cold PBS and resuspended in Binding Buffer at a cell density of 1×10^6 cells/mL. Following manufacturer's instructions (BD Pharmingen™) 100 μL of cells were treated with 5 μL of Annexin V-FITC. After incubation for 15 min in the dark at room temperature, 400 ul of Binding Buffer was added and each sample was supplemented with 10 μL of Propidium Iodide. Flow cytometry analysis was performed on a LSR Fortessa cytometer.

BxPC-3 cells = assay: Drug sensitivity assay, cell viability by crystal violet; assay type: cell-based; parameters: cell death induced by Doxorubicin: dose or concentration left out as unconfirmed; details: days 2 to 4
Description: as §1, with “(D) Annexin-V/PI staining of BxPC-3 infected cells with and without puromycin treatment, analyzed by Flow Cytrometry.” left out, “staining. For drug sensitivity assays, doxycycline induction was coupled with Doxorubicin ([…]) or Actinomycin D (5 nM) (from days 2 to 4), and cell viability was measured by staining with crystal violet.” for “staining.”

[1] = test system: squamous cell carcinoma cell line H10; assay: Cell proliferation assay (growth curve, 14 days); assay type: cell-based; details: H10, monitored for 14 days, vs control vector
Text: (§2) FIG. 8. SEQ ID NO: 1 overexpression reduces cell proliferation. A549 and H10 cells were transduced with an inducible lentivirus coding HA-SEQ ID NO: 1. SEQ ID NO: 1 expression was induced by doxycycline treatment for 14 days. (A) Growth curve of transduced cells over 14 days of SEQ ID NO:1 expression. (B) Cell cycle analysis by flow cytometry. Left, histogram plots. Right, quantification of the number of cells in every cell cycle phase. Graphs show the mean±SD, using at least 3 technical replicates. **** P<0.0001, two-tailed t-test.
A549 and H10 cell lines were dissociated by trypsin digestion and seeded into 24-well cell culture plates at density 5×10^3 cells/well. Every two days, cells were dissociated from wells and counted using a Neubauer chamber. Cell growth curves were monitored for 14 days.

H10 cells = assay: Cell cycle analysis by flow cytometry; assay type: cell-based
Text: as §2
Micropeptide of SEQ ID NO: 1 expression was induced in BxPC3 cells by treatment with doxycycline (2 μg/ml) for 4 days. Cells were fixed using 100% ethanol at 4° C., stained with Propidium Iodide, and cell cycle was analysed by flow cytometry (LSR-Fortessa cytometer). Cell viability in micropeptide of SEQ ID NO: 1-expressing cells was evaluated using CellTiter-Glo 2.0 (Promega) following manufacturer's instructions.

A549 cancer cells = assay: Invasion assay (Boyden chamber, Matrigel); assay type: cell-based, human; details: A549, after 4 days of doxycycline induction, 24 h invasion
Description: (§3) FIG. 9. SEQ ID NO: 1 overexpression impairs invasiveness and reduces mesenchymal traits in A549 and H10 cell lines. Invasion of indicated cells was analyzed in matrigel-coated inserts. (A) The undersides of membrane inserts containing invaded cells were fixed and stained with crystal violet and photographed 24 h after plating. (B) Number of invasive cells was calculated using ImageJ software. Bars plots show relative number of cells invading the chamber. (C) Analysis of several mesenchymal genes by qPCR. mRNA expression is shown relative to the control. * P<0.05, **P<0.01 two-tailed t-test.
BxPC-3, MDA-MB-231, A549 and H10 cell lines were trypsinized, counted, and 20.000 cells/well were seeded in triplicate in a Corning® cell culture insert (Boyden chamber) in which the porous membrane is coated with a layer of Matrigel® to mimic an extra cellular matrix (ECM). Cells were allowed to invade through the coated membrane for 24 hours in the cell incubator at 37° C. After the incubation time, culture inserts were fixed in methanol 5 minutes at RT and stained using Crystal Violet 20 minutes at RT. The excess of Crystal Violet staining was removed washing with PBS and pictures of the chambers were taken using an Olympus CeIIR microscope. Invading cells were counted using ImageJ and fold change was calculated normalizing to the control.

[2] = test system: EMT regulators VIMENTIN, SLUG, SNAIL, N-CADHERIN, TWIST1, TWIST2, ZEB1 and ZEB2; assay: Mesenchymal gene expression by qPCR in H10 SCC cell line; assay type: cell-based
Description: as §3
Total RNA was extracted with Trizol® and treated with TURBO™ DNase following provider's recommendations. 1 μg of RNA was retrotranscribed using iScript™ cDNA Synthesis Kit (BioRad). Gene expression was analysed by quantitative real time PCR using PowerUp SYBR Green Master Mix (Thermo Fisher Scientific) in the 7900HT Fast Real-Time PCR System (Applied Biosystems). Cycle threshold (Ct) values were normalized to GAPDH.

ubiquitylated proteins = assay: Co-Immunoprecipitation using Anti-HA and Western Blot; assay type: binding; details: immunoprecipitation with Anti-HA
Text: (§4) FIG. 11. Micropeptide of sequence SEQ ID NO: 1 expression changes cell ubiquitylation pattern. (A) Co-Immunoprecipitation using Anti-HA and Western Blot experiments indicate the presence of ubiquitylated proteins in the pull down of SEQ ID NO: 1 expressing cells. (B) Analysis of ubiquitylated protein levels by Western Blot in SEQ ID NO: 1 or empty vector BxPC-3 infected cells after proteasome blocking treatment with MG132.

[3] = test system: protein ubiquitylation pattern in BxPC-3 infected cells; assay: Ubiquitylated protein levels by Western Blot after MG132; assay type: cell-based; details: proteasome blocking with MG132
Text: as §4

B1: SEQ ID NO: 1: highly conserved 87 aa micropeptide coded by the lncRNA TINCR; predicted ubiquitin-like protein (protein, listed as Homo sapiens)
chain: MEGLRRGLSRWKRYHIKVHLADEALLLPLTVRPRDTLSDLRAQLVGQGVSSWKRAFYYNARRLDDHQTVRDARLQDGSVLLLVSDPR
With B1 the “percentage of early apoptotic cells” value (BxPC-3 infected cells) was 22.4%, the “percentage of late apoptotic cells” value (BxPC-3 infected cells) was 58.6% and the “cell death induced by Actinomycin D” value (BxPC-3 cells; BxPC-3, doxycycline induction coupled with Actinomycin D (5 nM)) was “sensitizes to cell death”. The “cell death induced by Doxorubicin” value (BxPC-3 cells; BxPC-3, doxycycline induction coupled with Doxorubicin) was “sensitizes to cell death”, the growth rate [1] was “consistently lower growth rate” and the “cells arrested in G1 phase” value (H10 cells) was “increase in cells arrested in G1 phase”. The invasion (A549 cancer cells) was “significant decrease in invasion”, the “expression of the EMT regulators VIMENTIN, SLUG, SNAIL, N-CADHERIN, TWIST1, TWIST2, ZEB1 and ZEB2” value [2] was “represses the expression” and the “binding to ubiquitylated proteins” value (ubiquitylated proteins) was “binds to ubiquitylated proteins”. For the same molecule, the protein ubiquitylation pattern [3] was “alters protein ubiquitylation pattern”.

From US11858972B2, “Micropeptides and uses thereof” (FUNDACIÓ PRIVADA INSTITUT D'INVESTIGACIÓ ONCOLÒGICA DE VALL …, priority 2018, dated 2024)
